From patent publication US9580731B2, “Methods of producing 7-carbon chemicals via c1 carbon chain elongation associated with coenzyme B synthesis” (INVISTA North America S.á r.l., priority 2012, dated 2017)

How the values were obtained:
Type in all cases: biochemical
[1] = ω-transaminase activity assay, 7-aminoheptanol to 7-oxoheptanol; settings: for ω-transaminase activity for converting 7-aminoheptanol to 7-oxoheptanol (pyruvate to L-alanine): cell free extract, 10 mM 7-aminoheptanol, 10 mM pyruvate, 25° C., 4 h, against empty vector control, FIG. 19; for ω-transaminase acceptance of 7-oxoheptanol, forming 7-aminoheptanol: concluded from reversibility of the ω-transaminase activity (Example 2)
Method: A nucleotide sequence encoding an N-terminal His-tag was added to the Chromobacterium violaceum, Pseudomonas syringae and Rhodobacter sphaeroides genes encoding the ω-transaminases of SEQ ID NOs: 8, 10 and 11, respectively (see FIG. 7) such that N-terminal HIS tagged ω-transaminases could be produced. The modified genes were cloned into a pET21a expression vector under the T7 promoter. Each expression vector was transformed into a BL21[DE3] E. coli host. Each resulting recombinant E. coli strain were cultivated at 37° C. in a 250 mL shake flask culture containing 50 mL LB media and antibiotic selection pressure, with shaking at 230 rpm. Each culture was induced overnight at 16° C. using 1 mM IPTG.
(§1) The pellet from each induced shake flask culture was harvested via centrifugation. Each pellet was resuspended and lysed via sonication. The cell debris was separated from the supernatant via centrifugation and the cell free extract was used immediately in enzyme activity assays.
(§2) Enzyme activity assays in the reverse direction (i.e., 7-aminoheptanol to 7-oxoheptanol) were performed in a buffer composed of a final concentration of 50 mM HEPES buffer (pH=7.5), 10 mM 7-aminoheptanol, 10 mM pyruvate, and 100 μM pyridoxyl 5′ phosphate. Each enzyme activity assay reaction was initiated by adding cell free extract of the ω-transaminase gene product or the empty vector control to the assay buffer containing the 7-aminoheptanol and then incubated at 25° C. for 4 h, with shaking at 250 rpm. The formation of L-alanine was quantified via RP-HPLC.

[2] = ω-transaminase activity assay, reverse direction, 7-aminoheptanoate to pimelate semialdehyde; settings: cell free extract, 10 mM 7-aminoheptanoate, 10 mM pyruvate, 25° C., 4 h, against empty vector control, FIG. 15
Method: (§3) A sequence encoding an N-terminal His-tag was added to the genes from Chromobacterium violaceum, Pseudomonas syringae, Rhodobacter sphaeroides, and Vibrio Fluvialis encoding the ω-transaminases of SEQ ID NOs: 8, 10, 11 and 13, respectively (see FIG. 7) such that N-terminal HIS tagged ω-transaminases could be produced. Each of the resulting modified genes was cloned into a pET21a expression vector under control of the T7 promoter and each expression vector was transformed into a BL21[DE3] E. coli host. The resulting recombinant E. coli strains were cultivated at 37° C. in a 250 mL shake flask culture containing 50 mL LB media and antibiotic selection pressure, with shaking at 230 rpm. Each culture was induced overnight at 16° C. using 1 mM IPTG.
as §1
as §2, with “7-aminoheptanoate” for “7-aminoheptanol”, “pimelate semialdehyde)” for “7-oxoheptanol)”, “7-aminoheptanoate,” for “7-aminoheptanol,”, “pyruvate” for “pyruvate,”, “and” for “and then”, “L-alanine from pyruvate” for “L-alanine”

[3] = ω-transaminase activity assay, forward direction, pimelate semialdehyde to 7-aminoheptanoate; settings: for ω-transaminase activity for converting pimelate semialdehyde to 7-aminoheptanoate (L-alanine to pyruvate): cell free extract, 10 mM pimelate semialdehyde, 10 mM L-alanine, 25° C., 4 h, against empty vector control, FIG. 16; for reversibility of the ω-transaminase activity: pimelate semialdehyde accepted, 7-aminoheptanoate synthesized: conclusion from forward and reverse assays of Example 2
Method: as §3, §1
Enzyme activity in the forward direction (i.e., pimelate semialdehyde to 7-aminoheptanoate) was confirmed for the transaminases of SEQ ID NO 10, SEQ ID NO 11 and SEQ ID NO 13. Enzyme activity assays were performed in a buffer composed of a final concentration of 50 mM HEPES buffer (pH=7.5), 10 mM pimelate semialdehyde, 10 mM L-alanine and 100 μM pyridoxyl 5′ phosphate. Each enzyme activity assay reaction was initiated by adding a cell free extract of the ω-transaminase gene product or the empty vector control to the assay buffer containing the pimelate semialdehyde and incubated at 25° C. for 4 h, with shaking at 250 rpm. The formation of pyruvate was quantified via RP-HPLC.

[4] = Carboxylate reductase activity assay, N7-acetyl-7-aminoheptanoate to N7-acetyl-7-aminoheptanal (NADPH consumption); settings: 2 mM N7-acetyl-7-aminoheptanoate, enhanced by gene product of sfp, room temperature, 20 min, against empty vector control, FIG. 12
Method: The activity of each of the N-terminal His-tagged carboxylate reductases of SEQ ID NOs: 3, 6, and 7 (see Examples 4, and FIG. 7) for converting N7-acetyl-7-aminoheptanoate to N7-acetyl-7-aminoheptanal was assayed in triplicate in a buffer composed of a final concentration of 50 mM HEPES buffer (pH=7.5), 2 mM N7-acetyl-7-aminoheptanoate, 10 mM MgCl2, 1 mM ATP, and 1 mM NADPH. The assays were initiated by adding purified carboxylate reductase and phosphopantetheine transferase or the empty vector control to the assay buffer containing the N7-acetyl-7-aminoheptanoate then incubated at room temperature for 20 min. The consumption of NADPH was monitored by absorbance at 340 nm.

| Molecule | ω-transaminase activity for converting 7-aminoheptanol to 7-oxoheptanol (pyruvate to L-alanine) [1] | ω-transaminase acceptance of 7-oxoheptanol, forming 7-aminoheptanol [1] | ω-transaminase activity for converting 7-aminoheptanoate to pimelate semialdehyde (pyruvate to L-alanine) [2] | ω-transaminase activity for converting pimelate semialdehyde to 7-aminoheptanoate (L-alanine to pyruvate) [3] | reversibility of the ω-transaminase activity: pimelate semialdehyde accepted, 7-aminoheptanoate synthesized [3] | carboxylate reductase activity for converting N7-acetyl-7-aminoheptanoate to N7-acetyl-7-aminoheptanal (NADPH consumption, absorbance at 340 nm) [4] |
| --- | --- | --- | --- | --- | --- | --- |
| SEQ ID NO 11: Rhodobacter sphaeroides ω-transaminase, Genbank Accession No. ABA81135.1 | accepted 7-aminoheptanol as substrate | accept 7-oxoheptanol as substrate | accepted 7-aminoheptanote as substrate | accepted pimelate semialdehyde as substrate | accepted pimelate semialdehyde as substrate and synthesized 7-aminoheptanoate | – |
| SEQ ID NO 13: Vibrio fluvialis ω-transaminase, Genbank Accession No. AEA39183.1 (protein, listed as Vibrio fluvialis) MNKPQSWEARAETYSLYGFTDMPSLHQRGTVVVTHGEGPYIVDVNGRRYLDANSGLWNMVAGFDHKGLIDAAKAQYERFPGYHAFFGRMSDQTVMLSEKLVEVSPFDSGRVFYTNSGSEANDTMVKMLWFLHAAEGKPQKRKILTRWNAYHGVTAVSASMTGKPYNSVFGLPLPGFVHLTCPHYWRYGEEGETEEQFVARLARELEETIQREGADTIAGFFAEPVMGAGGVIPPAKGYFQAILPILRKYDIPVISDEVICGFGRTGNTWGCVTYDFTPDAIISSKNLTAGFFPMGAVILGPELSKRLETAIEAIEEFPHGFTASGHPVGCAIALKAIDVVMNEGLAENVRRLAPRFEERLKHIAERPNIGEYRGIGFMWALEAVKDKASKTPFDGNLSVSERIANTCTDLGLICRPLGQSVVLCPPFILTEAQMDEMFDKLEKALDKVFAEVA | – | – | accepted 7-aminoheptanote as substrate | accepted pimelate semialdehyde as substrate | accepted pimelate semialdehyde as substrate and synthesized 7-aminoheptanoate | – |
| SEQ ID NO 10: Pseudomonas syringae ω-transaminase, Genbank Accession No. AAY39893.1 (protein, listed as Pseudomonas syringae) MSANNPQTLEWQALSSEHHLAPFSDYKQLKEKGPRIITRAEGVYLWDSEGNKILDGMSGLWCVAIGYGREELADAASKQMRELPYYNLFFQTAHPPVLELAKAISDIAPEGMNHVFFTGSGSEGNDTMLRMVRHYWALKGQPNKKTIISRVNGYHGSTVAGASLGGMTYMHEQGDLPIPGVVHIPQPYWFGEGGDMTPDEFGIWAAEQLEKKILELGVENVGAFIAEPIQGAGGVIVPPDSYWPKIKEILSRYDILFAADEVICGFGRTSEWFGSDFYGLRPDMMTIAKGLTSGYVPMGGLIVRDEIVAVLNEGGDFNHGFTYSGHPVAAAVALENIRILREEKIVERVRSETAPYLQKRLRELSDHPLVGEVRGVGLLGAIELVKDKTTRERYTDKGAGMICRTFCFDNGLIMRAVGDTMIIAPPLVISFAQIDELVEKARTCLDLTLAVLQG | accepted 7-aminoheptanol as substrate | accept 7-oxoheptanol as substrate | accepted 7-aminoheptanote as substrate | accepted pimelate semialdehyde as substrate | accepted pimelate semialdehyde as substrate and synthesized 7-aminoheptanoate | – |
| SEQ ID NO 3: Mycobacterium smegmatis carboxylate reductase, Genbank Accession No. ABK71854.1 (protein, listed as Mycobacterium smegmatis) MTSDVHDATDGVTETALDDEQSTRRIAELYATDPEFAAAAPLPAVVDAAHKPGLRLAEILQTLFTGYGDRPALGYRARELATDEGGRTVTRLLPRFDTLTYAQVWSRVQAVAAALRHNFAQPIYPGDAVATIGFASPDYLTLDLVCAYLGLVSVPLQHNAPVSRLAPILAEVEPRILTVSAEYLDLAVESVRDVNSVSQLVVFDHHPEVDDHRDALARAREQLAGKGIAVTTLDAIADEGAGLPAEPIYTADHDQRLAMILYTSGSTGAPKGAMYTEAMVARLWTMSFITGDPTPVINVNFMPLNHLGGRIPISTAVQNGGTSYFVPESDMSTLFEDLALVRPTELGLVPRVADMLYQHHLATVDRLVTQGADELTAEKQAGAELREQVLGGRVITGFVSTAPLAAEMRAFLDITLGAHIVDGYGLTETGAVTRDGVIVRPPVIDYKLIDVPELGYFSTDKPYPRGELLVRSQTLTPGYYKRPEVTASVFDRDGYYHTGDVMAETAPDHLVYVDRRNNVLKLAQGEFVAVANLEAVFSGAALVRQIFVYGNSERSFLLAVVVPTPEALEQYDPAALKAALADSLQRTARDAELQSYEVPADFIVETEPFSAANGLLSGVGKLLRPNLKDRYGQRLEQMYADIAATQANQLRELRRAAATQPVIDTLTQAAATILGTGSEVASDAHFTDLGGDSLSALTLSNLLSDFFGFEVPVGTIVNPATNLAQLAQHIEAQRTAGDRRPSFTTVHGADATEIRASELTLDKFIDAETLRAAPGLPKVTTEPRTVLLSGANGWLGRFLTLQWLERLAPVGGTLITIVRGRDDAAARARLTQAYDTDPELSRRFAELADRHLRVVAGDIGDPNLGLTPEIWHRLAAEVDLVVHPAALVNHVLPYRQLFGPNVVGTAEVIKLALTERIKPVTYLSTVSVAMGIPDFEEDGDIRTVSPVRPLDGGYANGYGNSKWAGEVLLREAHDLCGLPVATFRSDMILAHPRYRGQVNVPDMFTRLLLSLLITGVAPRSFYIGDGERPRAHYPGLTVDFVAEAVTTLGAQQREGYVSYDVMNPHDDGISLDVFVDWLIRAGHPIDRVDDYDDWVRRFETALTALPEKRRAQTVLPLLHAFRAPQAPLRGAPEPTEVFHAAVRTAKVGPGDIPHLDEALIDKYIRDLREFGLI | – | – | – | – | – | accepted N7-acetyl-7-aminoheptanoate as substrate |
| SEQ ID NO 8: Chromobacterium violaceum ω-transaminase, Genbank Accession No. AAQ59697.1 (protein, listed as Chromobacterium violaceum) MQKQRTTSQWRELDAAHHLHPFTDTASLNQAGARVMTRGEGVYLWDSEGNKIIDGMAGLWCVNVGYGRKDFAEAARRQMEELPFYNTFFKTTHPAVVELSSLLAEVTPAGFDRVFYTNSGSESVDTMIRMVRRYWDVQGKPEKKTLIGRWNGYHGSTIGGASLGGMKYMHEQGDLPIPGMAHIEQPWWYKHGKDMTPDEFGVVAARWLEEKILEIGADKVAAFVGEPIQGAGGVIVPPATYWPEIERICRKYDVLLVADEVICGFGRTGEWFGHQHFGFQPDLFTAAKGLSSGYLPIGAVFVGKRVAEGLIAGGDFNHGFTYSGHPVCAAVAHANVAALRDEGIVQRVKDDIGPYMQKRWRETFSRFEHVDDVRGVGMVQAFTLVKNKAKRELFPDFGEIGTLCRDIFFRNNLIMRACGDHIVSAPPLVMTRAEVDEMLAVAERCLEEFEQTLKARGLA | accepted 7-aminoheptanol as substrate | accept 7-oxoheptanol as substrate | accepted 7-aminoheptanote as substrate | – | accepted pimelate semialdehyde as substrate and synthesized 7-aminoheptanoate | – |
